Like-named read-outs stand apart in the source and are kept apart here.
Legend:
Experiment in all cases: radioligand binding
[1] = target: [T184K]Ls-AChBP, Ub-tagged (Lymnaea stagnalis) (UniProt P58154)
[2] = target: Ubiquitin (Ub)-tagged Ls-AChBP, wild type (Lymnaea stagnalis) (UniProt P58154)
[3] = target: [Q55K]Ls-AChBP, Ub-tagged (Lymnaea stagnalis) (UniProt P58154)
[4] = target: [S186E]Ls-AChBP, Ub-tagged (Lymnaea stagnalis) (UniProt P58154)
[5] = target: [T184F]Ls-AChBP, Ub-tagged (Lymnaea stagnalis) (UniProt P58154)
[6] = target: [T184F S186E]Ls-AChBP, Ub-tagged (Lymnaea stagnalis) (UniProt P58154)
[7] = target: Ubiquitin (Ub)-tagged Ls-AChBP, wild type (Lymnaea stagnalis) (UniProt P58154); remark: listed apart in the source
[8] = target: [H69A]Ls-AChBP, Ub-tagged (Lymnaea stagnalis) (UniProt P58154)
[9] = target: [R23D]Ls-AChBP, Ub-tagged (Lymnaea stagnalis) (UniProt P58154)

## VxXXB-C(19–50), full-length C-terminal domain of αD-conotoxin VxXXB (peptide)
[1]
  IC50: > 100 µM
[2]
  IC50: 7.2 µM
[3]
  IC50: 29.7 µM
[4]
  IC50: 90 nM
[5]
  IC50: 0.58 µM
[6]
  IC50: 30 nM
[7]
  IC50: 10 µM
[8]
  IC50: 10 µM
[9]
  IC50: 10 µM

## VxXXB-C(21–50), C-terminal domain of αD-conotoxin VxXXB (peptide)
[1]
  IC50: 55 µM
[2]
  IC50: 10 µM
[3]
  IC50: 36 µM
[4]
  IC50: 40 nM
[5]
  IC50: 7.2 µM
[6]
  IC50: 50 nM

## VxXXB-CNC, full-length synthetic VxXXB (peptide)
[6]
  IC50: 4 nM
[7]
  IC50: 0.8 µM
[8]
  IC50: > 10 µM
[9]
  IC50: > 10 µM

## native αD-conotoxin VxXXB (from UniProt P0C1W6 46-95) (natural protein)
[2]
  IC50: 0.011 µM
[6]
  IC50: 1 nM
